Patent US20030017991A1 (PHARMACIA AND UPJOHN COMPANY A DELAWARE, published 2003)
Non-standard residues stand in square brackets, D forms with d. No end group written: not given here. Nle = CCCC[C@H](N)C(=O)O

Target: human Asp2 aspartyl protease (Hu-Asp2), recombinant enzyme used in the in vitro cleavage assays (human, UniProt P56817 22-453, limits assumed)
Test: cell-based or functional assay

Sequence of human Asp2 aspartyl protease (Hu-Asp2), recombinant enzyme used in the in vitro cleavage assays (P56817 22-453 Q214H limits assumed): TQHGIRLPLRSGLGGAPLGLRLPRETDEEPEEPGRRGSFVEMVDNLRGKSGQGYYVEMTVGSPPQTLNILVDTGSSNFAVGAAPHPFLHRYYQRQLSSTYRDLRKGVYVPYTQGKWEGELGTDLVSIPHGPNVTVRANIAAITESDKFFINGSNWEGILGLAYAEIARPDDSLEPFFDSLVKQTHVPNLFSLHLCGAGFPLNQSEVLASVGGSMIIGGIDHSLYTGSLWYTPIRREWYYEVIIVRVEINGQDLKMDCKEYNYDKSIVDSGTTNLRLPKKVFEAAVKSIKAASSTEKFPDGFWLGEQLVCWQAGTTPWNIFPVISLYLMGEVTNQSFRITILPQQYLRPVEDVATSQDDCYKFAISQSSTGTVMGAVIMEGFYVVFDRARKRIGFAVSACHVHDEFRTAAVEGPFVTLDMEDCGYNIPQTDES

activity against SEVSY-EVEFR (SEQ ID NO:141), peptide activity assay	activity against peptide #3 (SEQ ID NO:134)	Binder
0.2 ratio	–	SEVNYEVEFR [SEVNY-EVEFR]
–	~10 fold lower	KTIN[Nle]DVDPS [KTINnle-DVDPS]
